The text below walks through data of patent US6617117B1, “MAP kinases: polypeptides, polynucleotides and uses thereof” (Medical Research Council, priority 1996, dated 2003).

In assay [1] the target is T1, SAPK3 (Rattus norvegicus, UniProt Q63538).
T1 sequence (Q63538 1-367): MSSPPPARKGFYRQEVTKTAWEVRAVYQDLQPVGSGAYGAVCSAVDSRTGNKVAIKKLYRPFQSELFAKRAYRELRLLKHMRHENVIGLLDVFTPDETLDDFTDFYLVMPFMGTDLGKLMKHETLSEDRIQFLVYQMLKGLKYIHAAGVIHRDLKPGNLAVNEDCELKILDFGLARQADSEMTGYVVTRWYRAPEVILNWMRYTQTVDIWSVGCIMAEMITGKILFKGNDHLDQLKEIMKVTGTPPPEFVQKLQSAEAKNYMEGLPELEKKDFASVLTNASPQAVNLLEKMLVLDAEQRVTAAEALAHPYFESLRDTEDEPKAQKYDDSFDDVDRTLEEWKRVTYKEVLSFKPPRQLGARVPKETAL
In words: Activation of transfected myc epitope-tagged SAPK3 in KB and 293 cells, immunoprecipitation and MBP assay. In kind it is cell-based, human. Also noted: expressed in transfected cells; host or cells: human KB and 293 cells (vector pSG5). Conditions: FIG. 11A. Here is the method: FIG. 11. SAPK3 is activated by cytokines and cellular stresses in KB and 293 cells. KB cells (A) or 293 cells (B) were transiently transfected with a DNA construct expressing a myc epitope-tagged SAPK3. Cells in DMEM were stimulated for 15 min with 0.5 M sorbitol (an osmotic shock), 20 ng/ml IL-1α, 100 ng/ml TNFa, 0.5 mM sodium arsenite (a chemical stress), 100 ng/ml of EGF or 300 ng/ml TPA, or for 30 min with […] anisomycin or 10 min with 100 ng/ml IGF-1. UV-C irradiation of cells was carried out at 60 J/m2 (KB cells) or 200 J/m2 (293 cells) and the cells then left for a further 30 min at 37° C. before lysis. The myc epitope-tagged SAPK3 was immunoprecipitated from cell lysates using the 9E10 monoclonal antibody and assayed with MBP as substrate. […] After UV-C irradiation, SAPK3 activity in the extracts was 0.18 U/mg (KB cells) and 0.1 U/mg (293 cells).
Cell culture and transient transfections. 293, KB and COS-7 cells were cultured in Dulbecco's modified Eagles' Medium (DMEM) supplemented with 10% foetal calf serum, at 37° C., in an atmosphere of 5% CO2. Transfections of 293 cells were carried out using the calcium-phosphate method. […]

Another assay addresses T2, SAPK4 (Homo sapiens, UniProt O15264).
T2 sequence (O15264 1-365): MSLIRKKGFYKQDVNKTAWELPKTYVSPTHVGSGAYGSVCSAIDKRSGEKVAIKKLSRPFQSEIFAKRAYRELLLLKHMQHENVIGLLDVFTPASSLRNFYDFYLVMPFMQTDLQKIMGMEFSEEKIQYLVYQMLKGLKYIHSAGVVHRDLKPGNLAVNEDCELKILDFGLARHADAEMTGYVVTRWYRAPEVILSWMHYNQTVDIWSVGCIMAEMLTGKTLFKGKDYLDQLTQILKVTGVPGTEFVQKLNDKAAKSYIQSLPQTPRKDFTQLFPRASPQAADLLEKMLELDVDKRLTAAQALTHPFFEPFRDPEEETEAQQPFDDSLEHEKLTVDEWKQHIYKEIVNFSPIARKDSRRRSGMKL
The assay can be described thus: Co-transfection of SAPK4 with SKK3 into COS cells. The assay is classed as cell-based. Also on record: expressed in transfected cells; host or cells: COS1 cells, co-transfected with human SKK3. Conditions: n=3. The procedure: For bacterial expression, the open reading frames of human cDNA clones hSAPK2B2, hSAPK32 and hSAPK412 were amplified by PCR and subcloned as EcoRI fragments into expression vector pGEX4T-1 (Pharmacia), followed by transformation into E. coli strain BL21(DE3). The transformed bacteria were grown to an absorbance of 0.6 at 600 nm and induced with 0.4 mM isopropyl-1-thio-β-galactopyranoside (IPTG). […] For expression of c-myc epitope-tagged SAPK4, PCR was used to introduce the nucleotide sequence encoding the amino acid sequence […] (SEQ. ID. NO: 4) at the carboxy-terminus of SAPK4, followed by a stop codon. The resulting EcoRI/NotI fragment was subcloned into the mammalian expression vector pcDNA3.1 (Invitrogen). […] PCR fragments were verified by DNA sequencing. Transfections into COS1 cells were done as described in Example 4 and Cuenda et al, 1997.
We have shown previously that SKK3 accounts for 95% and SKK2 for 5% of the SAPK2a activator detected after Mono S chromatography of lysates from KB cells that have been stressed in several ways or stimulated with IL1 (Cuenda et al, 1996; Meier et al, 1996). […] SKK3 was also the only activator of SAPK4 after subjecting KB cells to osmotic stress using sorbitol (data not shown). Further evidence that SKK3 can activate SAPK4 in vivo was obtained by co-transfection into COS cells. […]

For assay [2], the target named is T1, SAPK3. In words: Co-transfection of SAPK3 with SKK3 into COS cells (FIG. 14). In kind it is cell-based. Also on record: expressed in transfected cells; host or cells: COS-1 cells (vector pSG5), alone or with human SKK3 or MEK kinase. Here is the method: FIG. 14. SKK3 activates SAPK3 in transfected cells. COS-1 cells were transiently transfected with DNA expressing SAPK3 or co-transfected with either SKK3 or MEK kinase (MEKK). Cells were stimulated in DMEM for 15 min or with 0.5 M sorbitol. After stimulation and lysis, SAPK3 was immunoprecipitated from the cell lysates using an anti-SAPK3 antibody raised against the C-terminal 16 residues of SAPK3 (see Methods) and activity measured using MBP as the substrate.
Cell culture and transient transfections. 293, KB and COS-7 cells were cultured in Dulbecco's modified Eagles' Medium (DMEM) supplemented with 10% foetal calf serum, at 37° C., in an atmosphere of 5% CO2. Transfections of 293 cells were carried out using the calcium-phosphate method. Cells were split to a density of 2×106 per 10 cm dish, and after 12 h at 37° C., 10 μg of plasmid DNA in 0.45 ml of sterile water was added to 50 μl of sterile CaCl2, and then 0.5 ml of sterile buffer composed of 50 mM N,N-bis[2-hydroxyethyl]-2-aminoethanesulphonic acid/HCl pH 6.96, 0.28 M NaCl and 1.5 mM Na2HPO4 was added. The resulting mixture was vortexed for 1 min, allowed to stand at room temperature for 20 min, and then added dropwise to a 10 cm dish of 293 cells. The cells were placed in an atmosphere of 3% CO2 for 16 h at 37° C., then the medium was aspirated and replaced with new DMEM containing 10% foetal calf serum. […]

B1: EGF: growth factor stimulus from Boehringer (protein, UniProt P01133 23-1207, looked up)
Pro-epidermal growth factor: PQHWSCPEGTLAGNGNSTCVGPAPFLIFSHGNSIFRIDTEGTNYEQLVVDAGVSVIMDFHYNEKRIYWVDLERQLLQRVFLNGSRQERVCNIEKNVSGMAINWINEEVIWSNQQEGIITVTDMKGNNSHILLSALKYPANVAVDPVERFIFWSSEVAGSLYRADLDGVGVKALLETSEKITAVSLDVLDKRLFWIQYNREGSNSLICSCDYDGGSVHISKHPTQHNLFAMSLFGDRIFYSTWKMKTIWIANKHTGKDMVRINLHSSFVPLGELKVVHPLAQPKAEDDTWEPEQKLCKLRKGNCSSTVCGQDLQSHLCMCAEGYALSRDRKYCEDVNECAFWNHGCTLGCKNTPGSYYCTCPVGFVLLPDGKRCHQLVSCPRNVSECSHDCVLTSEGPLCFCPEGSVLERDGKTCSGCSSPDNGGCSQLCVPLSPVSWECDCFPGYDLQLDEKSCAASGPQPFLLFANSQDIRHMHFDGTDYGTLLSQQMGMVYALDHDPVENKIYFAHTALKWIERANMDGSQRERLIEEGVDVPEGLAVDWIGRRFYWTDRGKSLIGRSDLNGKRSKIITKENISQPRGIAVHPMAKRLFWTDTGINPRIESSSLQGLGRLVIASSDLIWPSGITIDFLTDKLYWCDAKQSVIEMANLDGSKRRRLTQNDVGHPFAVAVFEDYVWFSDWAMPSVMRVNKRTGKDRVRLQGSMLKPSSLVVVHPLAKPGADPCLYQNGGCEHICKKRLGTAWCSCREGFMKASDGKTCLALDGHQLLAGGEVDLKNQVTPLDILSKTRVSEDNITESQHMLVAEIMVSDQDDCAPVGCSMYARCISEGEDATCQCLKGFAGDGKLCSDIDECEMGVPVCPPASSKCINTEGGYVCRCSEGYQGDGIHCLDIDECQLGEHSCGENASCTNTEGGYTCMCAGRLSEPGLICPDSTPPPHLREDDHHYSVRNSDSECPLSHDGYCLHDGVCMYIEALDKYACNCVVGYIGERCQYRDLKWWELRHAGHGQQQKVIVVAVCVVVLVMLLLLSLWGAHYYRTQKLLSKNPKNPYEESSRDVRSRRPADTEDGMSSCPQPWFVVIKEHQDLKNGGQPVAGEDGQAADGSMQPTSWRQEPQLCGMGTEQGCWIPVSSDKGSCPQVMERSFHMPSYGTQTLEGGVEKPHSLLSANPLWQQRALDPPHQMELTQ
modifications: Pro-epidermal growth factor
notes: growth factor stimulus from Boehringer
For the molecule B1, in the assay with SAPK3 [1], the “Activation of transfected SAPK3 (in words)” value is on record as “more weakly”.

B2: SKK3: SAP kinase kinase 3, upstream activator of SAPK2a, SAPK2b, SAPK3 and SAPK4 (protein)
chain: MSQSKGKKRNPGLKIPKEAFEQPQTSSTPPRDLDSKACISIGNQNFEVKADDLEPIMELGRGAYGVVEKMRHVPSGQIMAVKRIRATVNSQEQKRLLMDLDISMRTVDCPFTVTFYGALFREGDVWICMELMDTSLDKFYKQVIDKGQTIPEDILGKIAVSIVKALEHLHSKLSVIHRDVKPSNVLINALGQVKMCDFGISGYLVDSVAKTIDAGCKPYMAPERINPELNQKGYSVKSDIWSLGITMIELAILRFPYDSWGTPFQQLKQVVEEPSPQLPADKFSAEFVDFTSQCLKKNSKERPTYPELMQHPFFTLHESKGTDVASFVKLILGD
Take B2: the “Elevation of SAPK4 activity by co-expression” value in the assay with SAPK4 is reported as 12.5±0.63 fold. Further, in the assay with SAPK3 [2], the “Elevation of SAPK3 activity by coexpression” value stood at 10 fold. Moreover, the “Greater activation of transfected SAPK3 by osmotic shock where cotransfected” value with SAPK3 [2] (osmotic shock) was 30 fold.
